These are literature values, as cited in publication PMC7599640.

This data set addresses alpha-bungarotoxin (Bungarus multicinctus) (UniProt P60615).
Chain of UniProt P60615 (P60615 22-95): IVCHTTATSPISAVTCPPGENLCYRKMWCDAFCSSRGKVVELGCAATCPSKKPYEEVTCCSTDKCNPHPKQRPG

For the substance “Nicotinic acetylcholine receptor (from UniProt P02710)”, the Kd is 0.4 nM.
